Measured values: patent US20120329854

What was measured:
GST H3 1-15 T6A = GST H3 1-15 T6A (UniProt P68431)
[1] = biological target: GST-H3 1-135 (full-length histone H3) (UniProt P68431)
GST-H3 1-135 T6A = GST-H3 1-135 T6A (UniProt P68431)
GST-H3 1-15 = GST-H3 1-15 (UniProt P68431)
GST-H3 16-30 = GST-H3 16-30 (UniProt P68431)
GST-H3 29-44 = GST-H3 29-44 (UniProt P68431)
[2] = biological target: histone H3 in untreated nucleosomes purified from HeLa cells (UniProt P68431)
[3] = biological target: H3K4me1 peptide (H3 tail residues 1-20) (UniProt P68431)
[4] = biological target: H3K4me1T6ph peptide (H3 tail residues 1-20) (UniProt P68431)
[5] = biological target: H3K4me2 peptide (H3 tail residues 1-20) (UniProt P68431)
[6] = biological target: H3K4me2T6ph peptide (H3 tail residues 1-20) (UniProt P68431)

purified recombinant active PKCβI (ProQinase)
phosphorylation in the presence of [γ-32P]ATP (autoradiography) (GST H3 1-15 T6A): mutation of threonine 6 to alanine in either H3 1-15 (H3 1-15 T6A) or in full length H3 (H3 1-135 T6A) abolishes phosphorylation
phosphorylation in the presence of [γ-32P]ATP (autoradiography) [1]: only full-length histone H3 (H3 1-135) and a H3 fragment spanning amino acid residues 1 to 15 (H3 1-15), but not H3 16-30 or H3 29-44, are phosphorylated by PKCβI
phosphorylation in the presence of [γ-32P]ATP (autoradiography) (GST-H3 1-135 T6A): mutation of threonine 6 to alanine in either H3 1-15 (H3 1-15 T6A) or in full length H3 (H3 1-135 T6A) abolishes phosphorylation
phosphorylation in the presence of [γ-32P]ATP (autoradiography) (GST-H3 1-15): only full-length histone H3 (H3 1-135) and a H3 fragment spanning amino acid residues 1 to 15 (H3 1-15), but not H3 16-30 or H3 29-44, are phosphorylated by PKCβI
phosphorylation in the presence of [γ-32P]ATP (autoradiography) (GST-H3 16-30): but not H3 16-30 or H3 29-44, are phosphorylated by PKCβI
phosphorylation in the presence of [γ-32P]ATP (autoradiography) (GST-H3 29-44): but not H3 16-30 or H3 29-44, are phosphorylated by PKCβI
phosphorylation of nucleosomes at H3T6 (in vitro kinase assay, Western blot with α-H3T6ph) [2]: only PKCα, 131 and 132 phosphorylate nucleosomes at H3T6

purified recombinant active PKCδ (ProQinase)
phosphorylation of nucleosomes at H3T6 (in vitro kinase assay, Western blot with α-H3T6ph) [2]: only PKCα, 131 and 132 phosphorylate nucleosomes at H3T6 (PKCδ tested, no phosphorylation)

bacterially expressed and purified His-LSD1
demethylation assay, mass spectrometry [3]: demethylation of H3K4me1 by LSD1
demethylation assay, mass spectrometry [4]: demethylation of H3K4me1 by LSD1 is completely abrogated in the presence of phosphorylated T6
demethylation assay, mass spectrometry [5]: The robust demethylation of H3K4me2 observed in the presence of LSD1
demethylation assay, mass spectrometry [6]: is completely blocked when the peptides are phosphorylated at T6
